In patent US20070248613A1 (MERCK, published 2007):
Several values for one entry are separate records, joined by “and”; a condition that tells them apart may be missing. Equal values may be shown once.

Key:
[1] = target: T1, gp41 of the HIV-1 HXB2 envelope (HIV-1 strain HXB2, UniProt P04578 512-856); test: cell-based or functional assay
[2] = target: gp41 of the HIV-1 MN-1 envelope (HIV-1 strain MN-1, UniProt P05877 514-856); test: cell-based or functional assay
[3] = target: gp41 of the HIV-1 89.6 envelope (HIV-1 strain 89.6); test: cell-based or functional assay
[4] = target: gp41 of the HIV-1 NL4-3 envelope (HIV-1 strain NL4-3); test: cell-based or functional assay
[5] = target: gp41 of the HIV-1 BaL envelope (HIV-1 strain BaL); test: cell-based or functional assay
[6] = target: T2, 5-Helix (HIV-1); test: SPR (Biacore)
T2 construct: also called HIV-1 gp41-derived 5-Helix; biotinylated 5-Helix

[7] = target: T1, gp41 of the HIV-1 HXB2 envelope; test: cell-based or functional assay; remark: listed apart in the source
[8] = target: T2, 5-Helix; test: phage ELISA on biotinylated peptide captured on streptavidin plates
[9] = target: gp41 of the HIV-1 BaL envelope (HIV-1 strain BaL); test: cell-based or functional assay; remark: listed apart in the source

Binder	D5 IgG IC50 (nM), single cycle infectivity assay [1] [nM]	D5 IgG IC50 (nM), single cycle infectivity assay [2] [nM]	D5 IgG IC50 (nM), single cycle infectivity assay [3] [nM]	D5 IgG IC50 (nM), single cycle infectivity assay [4] [nM]	D5 IgG IC50 (nM), single cycle infectivity assay [5] [nM]	Kd [6] [nM]	koff [6] [s⁻¹]	kon [6] [M⁻¹ s⁻¹]	IC50, single cycle infectivity assay against HIV-HXB2 [7] [nM]	binding result [8]	IC50 (printed TC50), single cycle infectivity assay against HIV-HXB2 [7] [nM]	IC50, single cycle infectivity assay [7]	IC50, single cycle infectivity assay [9]
D5 IgG (antibody, V domains shown, also called D5 IgG4; D5 antibody) VH: QVQLVQSGAEVRKPGASVKVSCKASGDTFSSYAISWVRQAPGQGLEWMGGIIPIFGTANYAQKFQGRVTITADESTSTAYMELSSLRSEDTAIYYCARDNPTLLGSDYWGKGTLVTVSS VL: DIQMTQSPSTLSASIGDRVTITCRASEGIYHWLAWYQQKPGKAPKLLIYKASSLASGAPSRFSGSGSGTDFTLTISSLQPDDFATYYCQQYSNYPLTFGGGTKLEIK	310	393	1750	226	93	0.26	0.0001	390000	261				
5H/I1-BMV-D5 scFv (scFv, also called scFv D5) scFv: QVQLVQSGAEVRKPGASVKVSCKASGDTFSSYAISWVRQAPGQGLEWMGGIIPIFGTANYAQKFQGRVTITADESTSTAYMELSSLRSEDTAIYYCARDNPTLLGSDYWGKGTLVTVSSGGGGSGGGGSGGGGSDIQMTQSPSTLSASIGDRVTITCRASEGIYHWLAWYQQKPGKAPKLLIYKASSLASGAPSRFSGSGSGTDFTLTISSLQPDDFATYYCQQYSNYPLTFGGGTKLEIK										binds	238	320 nM and 8 ug/ml	600 nM and 15 ug/ml
5H/I1-BMV-B11 scFv (scFv, also called scFv B11) scFv: QVQLVQSGAEVKKPGSSVKVSCKASGGTFSSYAISWVRQAPGQGLEWMGGIIPLFDTSNYAQNFQGRITITADKSTSTAYMELSSLRFEDTAIYYCARDNPLLLAMDVWGKGTTVTVSSGGGGSGGGGSGGGGSDIQMTQSPSTLSASIGDRVTITCRASEGIYHWLAWYQQKPGKAPKLLIYKASSLASGAPSRFSGSGSGTDFTLTISSLQPDDFATYYCQQYSNYPLTFGGGTKLEIK										binds			
